Biological target: the molecule itself
Assay: SEC

B1: prion protein (PrP) from 263K-infected Syrian hamster brain (natural protein)
chain: not shown
notes: also called PrP^Sc; 263K PrP^Sc
stoichiometry N: ~3

From publication PMC5589264, “Reversible unfolding of infectious prion assemblies reveals the existence of an oligomeric elementary brick” (PLoS Pathogens, 2017)
